Experimental data as given in patent publication US6444644B1, “Anticoagulant peptide fragments derived from apolipoprotein B-100” (University College London, priority 1996, dated 2002).
Values belong to the molecule of their own block, whether it stands above or below them.

How the values were obtained:
[1] = test system: T1, KRAD-14 peptide (recombinant, released from the biotinylated fusion protein with chymotrypsin)
T1 sequence: KAQSKKNKHRHSTT

[2] = target: recombinant thromboplastin (UniProt P13726 33-295, limits assumed); assay: cell-based or functional assay
[3] = target: T2, thromboplastin, reconstituted in phosphatidylcholine (Homo sapiens, UniProt P13726); assay: Inhibition of delipidated thromboplastin reconstituted in phosphatidylcholine; format: biochemical; details: 500 nM sample, 37° C., 30 min; for Procoagulant Activity: distilled water control 4.70 U/ml
T2 construct: purchased Gamidor Ltd. (Oxfordshire, U.K.)
T2 sequence (P13726 33-295): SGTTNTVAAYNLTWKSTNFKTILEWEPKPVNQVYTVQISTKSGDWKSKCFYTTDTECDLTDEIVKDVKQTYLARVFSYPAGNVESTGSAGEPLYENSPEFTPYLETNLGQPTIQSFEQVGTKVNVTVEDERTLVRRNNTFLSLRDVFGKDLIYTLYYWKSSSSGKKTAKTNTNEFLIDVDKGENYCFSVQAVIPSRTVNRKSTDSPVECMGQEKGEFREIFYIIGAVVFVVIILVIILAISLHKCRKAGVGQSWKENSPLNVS
Method: In other experiments, recombinant thromboplastin (1 mg/ml) was delipidated with chloroform/methanol as described previously, to remove phosphatidylserine and other lipids and reconstituted with phosphatidylcholine (1 mg/ml) to differentiate between the effects of the prepared samples on the protein moiety of thromboplastin and any effects on the thromboplastin-associated phosphatidylserine. […] The percentage inhibition was calculated against the control sample.
Recombinant thromboplastin was delipidated to remove phosphatidylserine and other lipids and reconstituted at 1 mg/ml with phosphatidylcholine (1 mg/ml). […] The % Inhibition was calculated against the control. The data were obtained from 3 separate experiments.

thromboplastin [4] = target: T3, thromboplastin (Homo sapiens, UniProt P13726); assay: Time-course inhibition of thromboplastin procoagulant activity (one-stage prothrombin time and two-stage amidolytic assay); format: biochemical; details: 500 nM, 37° C.; for effect on thromboplastin (in words): up to 120 min
T3 construct: purchased Gamidor Ltd. (Oxfordshire, U.K.)
T3 sequence (P13726 33-295): as above
Method: The one stage prothrombin time assay was carried out by the addition of 100 μl of the sample to 100 μl of 25 mM CaCl2 solution and incubation prior to addition of 100 μl of control plasma. The clotting time was measured on the coagulometer. The two-stage amidolytic assay was carried according to published procedures. In all cases the thromboplastin activity was calculated from a standard curve prepared previously and the percentage inhibition was calculated as 100×[…].
The apolipoprotein B-100 control peptide (fragment 3358-3372) containing the sequence TRLTRKRGLKLATAL was reconstituted in distilled water to 1 mM. The freeze-dried samples were reconstituted in distilled water to a concentration of 1 mM. Two 200 μl samples of thromboplastin (10 U/ml) were incubated with 500 nM KRAD-14 or apolipoprotein B-100 control peptide at 37° C. for 45 min. Another set of 200 μl samples of thromboplastin (10 U/ml) were incubated with either 500 nM KRAD-98 or the chloramphenicol acetyltransferase control protein. […] Following the incubation the thromboplastin activity in all the samples was measured by means of the one-stage prothrombin time assay and the two-stage amidolytic assay and the percentage inhibition calculated against the control containing distilled water.
The above experiments were repeated using 1 ml samples containing recombinant thromboplastin (10 U/ml) mixed with either 500 nM KRAD-14, 500 nM KRAD-98 or 500 nM apolipoprotein B-100, reconstituted as described before. The concentrations used are equivalent to that of apolipoprotein B-100 in normal plasma. 100 μl of the each sample was removed immediately and assayed for thromboplastin activity, by means of the one-stage prothrombin time assay. The rest of the samples were incubated at 37° C. and further 100 μl samples were removed at intervals up to 120 min and measured as before. The percentage inhibition was calculated against a control sample of thromboplastin.
Three 1 ml samples containing recombinant thromboplastin (10 U/ml) were mixed with 500 nM KRAD-14 (solid square), 500 nM KRAD-98 (open square) or 500 nM apolipoprotein […] (triangle), reconstituted as described before. The concentrations used are equivalent to that of apolipoprotein B-100 in normal plasma. 100 μl of the each sample was removed immediately and assayed for thromboplastin activity, by means of the one-stage prothrombin time assay. The rest of the samples were incubated at 37° C. and further 100 μl samples were removed at intervals up to 120 min and measured as before. The thromboplastin activity was calculated from a standard curve prepared previously and the percentage inhibition was calculated as 100×[…]. The curves are typical of data from four sets of experiments.

thromboplastin [5] = target: T3, thromboplastin; assay: Effect of thromboplastin peptide (58-66) on thromboplastin activity (one-stage prothrombin time assay); format: biochemical; details: for effect on the procoagulant activity of thromboplastin (in words) / Procoagulant Activity of thromboplastin: peptide 1 μM, thromboplastin 100 nM; for Procoagulant Activity of thromboplastin: 5 min, 37° C., distilled water 6.70 U/ml
Method: The control peptide ([…]) was reconstituted to 1 mM in distilled water. The control peptide was similar but not identical to the thromboplastin (58-66), in size, charge and amino acid composition but with a different sequence. In order to assess the effect of the thromboplastin peptide (58-66) on the activity of thromboplastin, samples of recombinant thromboplastin (100 nM) were incubated for 5 min, with the isolated thromboplastin-peptide ([…]), control peptide (1 μM) or distilled water at 37° C. prior to assaying using the one-stage prothrombin time assay. The activity was calculated from a thromboplastin standard curve.
Three aliquots of thromboplastin (100 nM) were incubated for 5 min, with the isolated thromboplastin peptide (1 μM), control peptide (1 μM) or distilled water at 37° C. prior to assaying using the one-stage prothrombin time assay. The activity was calculated from a thromboplastin standard curve. The data were obtained from 3 separate experiments.

[6] = target: T4, interaction of thromboplastin with apo B-100 (Homo sapiens, UniProt P13726); assay: Influence of peptide 58-66 on the inhibition of thromboplastin by apo B-100; format: biochemical; details: peptide 1 μM, thromboplastin 100 nM, apo B-100 250 nM, 37° C., up to 180 min
T4 construct: purchased Gamidor Ltd. (Oxfordshire, U.K.) for thromboplastin; apoB-100 isolated and reconstituted in house
T4 sequence (P13726 33-295): as above
Method: (250 nM final concentration) in the presence and absence of the isolated thromboplastin peptide (1 μM) or control peptide (1 μM), at 37° C. Aliquots (100 μl) were removed at the start and at various intervals up to 180 min and assayed by means of the one-stage prothrombin time assay. The residual activity of thromboplastin measured in the samples was compared to the initial activity, at time zero, and percentage inhibition calculated.
Samples of thromboplastin (100 nM) were incubated with reconstituted apo B-100 (250 nM final concentration) in the presence (▪) and absence (▾) of the isolated thromboplastin peptide (1 μM), at 37° C. Aliquots ([…]) were removed at the start (time zero) and at various intervals up to 180 min and assayed by means of the one-stage prothrombin time assay. The data presented are representative of 5 independent experiments.

thromboplastin [7] = target: T3, thromboplastin; assay: Inhibition of thromboplastin in the presence of plasma; format: biochemical
Method: […] The samples were then assayed by addition of 100 μl of […] CaCl2 solution and measurement on the coagulometer. The percentage inhibition in each case calculated against a similarly treated sample, containing thromboplastin only.

Molecule: thrombin
- clotting ability and amidolytic proteolytic activity of thrombin (100 nM) after incubation with 500 nM peptide [1]: The KRAD-14 peptide (500 nM) did not affect either the clotting ability or the amidolytic proteolytic activity of thrombin (100 nM)

- % Inhibition of thromboplastin delipidated and reconstituted in phosphatidylcholine; 500 nM, 30 min, 37 C [2]: 62%
- Procoagulant Activity left of thromboplastin reconstituted in phosphatidylcholine; 500 nM, 30 min, 37 C [2]: 1.79 U/ml
- inhibition of procoagulant activity of thromboplastin, time course (FIG. 1), 70 min [2]: > 90%
Molecule: reconstituted apolipoprotein B-100 (from UniProt P04114 28-4563)

- % Inhibition ([3]; against distilled water control): 62%
- Procoagulant Activity [3]: (1.79 U/ml)
- inhibition of the procoagulant activity of thromboplastin (thromboplastin [4]; 90 min incubation): > 95%
Molecule: Reconstituted apolipoprotein B-100: apolipoprotein B-100 isolated from LDL by delipidation and gel filtration, reconstituted in phosphatidylcholine

- endogenous procoagulant activity of the peptide (thromboplastin [5]; peptide alone): no endogenous procoagulant activity
- Procoagulant Activity of thromboplastin (thromboplastin [5]): Peptide 56-66 (7.45 U/ml)
Molecule: DLTDEIVKD [thromboplastin-derived peptide (58-66), recombinant peptide of thromboplastin residues 58-66]
- effect on the procoagulant activity of thromboplastin (in words) (thromboplastin [5]): enhanced the procoagulant activity of thromboplastin
- effect on the rate of inhibition of thromboplastin activity by reconstituted apo B-100 [6]: accelerated the rate of inhibition of thromboplastin activity

- Procoagulant Activity [3]: (3358-3372) (4.68 U/ml)
- effect on thromboplastin (in words) (thromboplastin [4]; listed as cationic peptide from apolipoprotein B-100 (fragment 3358-3372)): had no effect
Molecule: TRLTRKRGLKLATAL [APO B-100 control peptide (3358-3372), apolipoprotein B-100 control peptide purchased from Sigma, reference compound]
- effect on thromboplastin (in words) (thromboplastin [4]; listed as control 15 mer apolipoprotein B-100 (fragment 3358-3372) peptide): neither the control 15 mer apolipoprotein B-100 (fragment 3358-3372) peptide nor the chloramphenicol acetyltransferase control protein had any detectable effect

- effect on the procoagulant activity of thromboplastin (in words) (thromboplastin [5]): did not have any significant effect
- Procoagulant Activity of thromboplastin (thromboplastin [5]): Control peptide (6.75 U/ml)
Molecule: VQGEESDNK [Control peptide]

- % Inhibition of thromboplastin delipidated and reconstituted in phosphatidylcholine; 500 nM, 30 min, 37 C [2]: 0.4%
- Procoagulant Activity left of thromboplastin reconstituted in phosphatidylcholine; 500 nM, 30 min, 37 C [2]: 4.68 U/ml
Molecule: TRLTRKRGLKLATAL [apolipoprotein B-100 control peptide (fragment 3358-3372)]

- % Inhibition of thromboplastin delipidated and reconstituted in phosphatidylcholine; 500 nM, 30 min, 37 C [2]: 85%
- Procoagulant Activity left of thromboplastin reconstituted in phosphatidylcholine; 500 nM, 30 min, 37 C [2]: 0.71 U/ml
- Procoagulant Activity [3]: (0.71 U/ml)
- influence of plasma on the ability to inhibit thromboplastin activity (in words) (thromboplastin [7]; plasma included during the incubation prior to assaying, peptide 500 nM): did not significantly affect
- inhibition of thromboplastin activity in the presence of plasma (thromboplastin [7]; plasma present, 37° C., 40 min incubation): 95%
- inhibition of the procoagulant activity of thromboplastin (thromboplastin [4]; 45 min incubation): 95%
B1: KRAD-98 peptide (recombinant, released with enterokinase) (peptide)
peptide: LKDESLWEKTGLKEFLKTTKQSFDLSVKAQYKKNKHRHSITNPLAVLCEFISQSIKSFDRHFEKNRNNALDFVTKSYNETKIKFDKYKAEKSHDELPR

- % Inhibition of thromboplastin delipidated and reconstituted in phosphatidylcholine; 500 nM, 30 min, 37 C [2]: 99%
- Procoagulant Activity left of thromboplastin reconstituted in phosphatidylcholine; 500 nM, 30 min, 37 C [2]: 0.05 U/ml
Molecule: KAQSKKNKHRHSTT [KRAD-14 peptide (recombinant, released from the biotinylated fusion protein with chymotrypsin)]
